Measured values from patent US8598315B2, “Protein transduction domains derived from secretory leukocyte protease inhibitor” (Research Foundation of City University of New York, priority 2007, dated 2013).
Values belong to the molecule of their own block, whether it stands above or below them. Ends that are not written are not given here.

Experiments:
[1] = tested on: retinal ganglion cell layer of the retina; assay: SLPI-derived PTD injected into adult eye (Example 8, expected result); settings: adult rats, injected into the eyes, 4 hours
Protocol: To analyze the transduction characteristics of SLPI11-25 in vivo, fSLPI11-25 is injected into the eyes of adult rats.

[2] = tested on: retinal ganglion cell layer of the retina; assay: Internalization in vivo after injection into the vitreous chamber of the eye; settings: adult rats, 5 μl of 1 μg/μl into vitreous chamber, 4 hours
Protocol: To analyze the transduction characteristics of SLPI in vivo, fSLPI was injected into the eyes of adult rats. Long-Evans rats (200-250 g) were anesthetized with 2.5% isofluorane and 5 μl of fSLPI (1 μg/μl) or unconjugated fluorescein was injected into the vitreous chamber of the right eye using a glass micropipette (1 μm diameter) attached to a microsyringe pump. 4 hours later, the animals were sacrificed by transcardial perfusion with 4% paraformaldehyde. Following removal of the cornea and lens, the eyes were dissected out and post-fixed in 4% paraformaldehyde for 48 hours. Tissues were then cryoprotected in 30% sucrose in phosphate-buffered saline (PBS) for an additional 48 hours. Tissues were sectioned sagitally at 30 μm on a cryostat and thaw-mounted onto gelatin-coated slides.

[3] = tested on: DRG neurons; assay: Internalization of fluorescein-labeled SLPI/peptides by DRG neurons at 37° C. (fluorescence microscopy); type: cell-based; settings: for internalization / presence in nuclei of DRG neurons: P6 DRG neurons, 5 μg/ml, 15 minutes
Protocol: To visualize internalization of SLPI in living cells, SLPI was labeled with fluorescein using a Fluorescein-EX protein labeling kit (Molecular Probes). The labeling reaction was performed following the protocol provided by the manufacturer. P5 DRG neurons were isolated (Mukhopadhyay et al., 1994; DeBellard et al., 1996; Cai et al., 1999; supra) and treated with either 10 μg/ml of fluorescein-labeled SLPI (fSLPI) or unconjugated fluorescein in SATO culture medium. Cells were then plated in 8 well chamber slides coated with 100 μg/ml poly-D-lysine (PDL) and incubated for 1 hour at 37° C. Cells were then fixed with 4% paraformaldehyde and immunostained using a monoclonal antibody to the neuronal marker βIII tubulin (1:1000 dilution, Covance). After an overnight incubation at 4° C., the cells were rinse and incubated successively with biotinylated anti-mouse antibody (1:500 dilution, Amersham) and Texas Red-conjugated streptavidin (1:300 dilution, Amersham). Slides were then coverslipped and viewed using an upright fluorescence microscope.
To further characterize SLPI internalization into living cells, P5 DRG neurons in SATO culture medium were treated with unconjugated fluorescein, 1 μg/ml fSLPI, or 10 μg/ml fSLPI and plated onto PDL-coated slides for 5 minutes at 37° C. Cells were then fixed and immunostained for βIII tubulin as described.
The transduction characteristics of a SLPI-derived PTD comprising amino acids 11-25 of human SLPI (SLPI11-25) were compared to those of the SLPI protein. SLPI11-25 and penetratin were custom synthesized and labeled with fluorescein at the C-terminus by Invitrogen. P6 DRG neurons were isolated and treated with unconjugated fluorescein, 5 μg/ml fSLPI, 5 μg/ml SLPI11-25, or 5 μg/ml penetratin in SATO culture medium. Cells were plated onto PDL-coated slides and incubated for 15 minutes at 37° C. Cells were then fixed and immunostained for βIII tubulin as described.

[4] = tested on: DRG neurons; assay: Internalization at 4° C. by DRG neurons plated on CHO cell monolayers; type: cell-based; settings: P6 DRG neurons, 10 μg/ml, 4 hours
Protocol: (§1) For these experiments, monolayers of Chinese hamster ovary (CHO) cells were prepared by plating 75,000 cells into the wells of 8-well chamber slides coated with 20 μg/ml PDL and 10 μg/ml fibronectin (Mukhopadhyay et al., 1994, supra). These cells were incubated overnight at 37° C. to allow the monolayers to form. P6 DRG neurons were then isolated, plated on the monolayers in SATO culture medium, and incubated for an additional 16 hours. This approach was used because of the harsh conditions used in these experiments. Neurons would likely fail to adhere to the slides if plated directly onto PDL and incubated at 4° C., and so, we enhanced adhesion by plating the neurons on CHO cell monolayers and allowing them to extend neurites. Cold SATO culture medium was supplemented with 10 μg/ml penetratin, fSLPI, or SLPI11-25 and added to the wells containing the neurons. The slides were then covered and incubated at 4° C. for 4 hours. Cells were then fixed and immunostained for βIII tubulin as described.

[5] = tested on: Chinese hamster ovary (CHO) cells; assay: Presence in the underlying CHO cell monolayer at 4° C.; type: cell-based; settings: 10 μg/ml, 4 hours
Protocol: as §1

[6] = Blood brain barrier crossing after intraperitoneal injection; type: in vivo, 129SI/SV1MJ mice; settings: mice, intraperitoneal 100 μg
Protocol: To assess whether SLPI crosses the blood brain barrier, adult 129SI/SV1MJ mice received intraperitoneal injections of 100 μg fSLPI in sterile PBS or unconjugated fluorescein (500 μl total volume). Mice were sacrificed by transcardial perfusion with 4% paraformaldehyde after 4 and 8 hours. The brains and cervical spinal cords were dissected out and prepared for sectioning as described. Tissues were sectioned coronally at 30 μm and slides were coverslipped as described. […] This may be an inherent property of SLPI or may be secondary to its observed efficient cellular internalization which may in turn prevent SLPI from ever reaching the CNS in high enough concentrations to be detected.
To assess whether SLPI11-25 crosses the blood brain barrier, 129SI/SV1MJ mice received intraperitoneal injections of 100 μg SLPI11-25 or penetratin in sterile PBS ([…]). Mice were sacrificed after 1 and 4 hours, and the brains and cervical spinal cords were prepared for sectioning as described. Tissues were sectioned coronally at 30 μm and slides were coverslipped as described. […] This may be an inherent property of SLPI-derived PTDs, or may be secondary to its observed efficient cellular internalization, which may in turn prevent the SLPI-derived PTD from ever reaching the CNS in high enough concentrations to be detected.

[7] = tested on: cerebellar neurons; assay: Western blot of cytoplasmic and nuclear fractions of treated cerebellar neurons; type: cell-based, rats; settings: 0, 1, 5, and 10 μg/ml, 1 hour, 37° C.
Protocol: FIG. 1: Western blot analysis of cytoplasmic and nuclear fractions from cerebellar neurons treated with 0, 1, 5, and 10 μg/ml SLPI for 1 hour. Higher levels of SLPI are observed in both cytoplasmic and nuclear fractions with increasing concentrations of SLPI. Phospho-CREB is used as a nuclear marker and actin is used as a loading control. See Example 1.
To characterize the transduction abilities of the SLPI protein, cerebellar neurons were isolated from postnatal day 6 (P6) rats (Mukhopadhyay et al., Neuron 13:757-767 (1994); DeBellard et al., Mol. Cell. Neurosci. 7:89-101 (1996); Cai et al., Neuron 22:89-101 (1999)) and treated with 0, 1, 5, and 10 μg/ml recombinant human SLPI (R&D Systems) in SATO culture medium (Doherty et al., Neuron 5:209-219 (1990); Nature 343:464-466 (1990)). Cells were incubated at 37° C. for 1 hour, and cytoplasmic and nuclear fractions were prepared using NE-PER cytoplasmic and nuclear extraction reagents (Pierce). Protein samples were subjected to SDS-PAGE using 15% SDS polyacrylamide gels and transferred to nitrocellulose. SLPI was detected using a polyclonal antibody to recombinant human SLPI (R&D Systems). […] The nuclear localization of SLPI was then confirmed by reprobing the membrane for a well-known nuclear marker: phosphorylated cyclic AMP response element binding protein (pCREB; Cell Signaling). […]

- presence in the retinal ganglion cell layer of the retina [1]: no signal is observed
- presence in the retinal ganglion cell layer of the retina [2]: no signal was observed
Molecule: O=C1OC2(c3ccc(O)cc3Oc3cc(O)ccc32)c2ccccc21 [fluorescein]

Molecule: SLPI11-25: SLPI-derived PTD, amino acids 11-25 of human SLPI (PPKKSAQCLRYKKPE, SEQ ID NO: 2), labeled with fluorescein at the C-terminus (PPKKSAQCLRYKKPE-fluorescein; listed as Homo sapiens)
- internalization / presence in nuclei of DRG neurons [3]: present in the nuclei of DRG neurons
- nuclear localization at the restrictive temperature [4]: still occurred at the restrictive temperature
- present in the underlying CHO cell monolayer [5]: not
- observed in the brain and spinal cord ([6]; 1 and 4 hours): No SLPI11-25 was observed in the brain and spinal cord at either time point

B1: SLPI: recombinant human secretory leukocyte protease inhibitor (R&D Systems), 107 amino acid polypeptide, SEQ ID NO: 1 (protein, listed as Homo sapiens)
chain: SGKSFKAGVCPPKKSAQCLRYKKPECQSDWQCPGKKRCCPDTCGIKCLDPVDTPNPTRRKPGKCPVTYGQCLMLNPPNFCEMDGQCKRDLKCCMGMCGKSCVSPVKA
- SLPI in cytoplasmic and nuclear fractions [7]: present in increasing amounts in both the cytoplasmic and nuclear fractions

B2: fSLPI: SLPI labeled with fluorescein using a Fluorescein-EX protein labeling kit (protein, UniProt P03973 26-132, looked up)
Antileukoproteinase: B1 chain
modifications: fluorescein label
notes: SLPI labeled with fluorescein using a Fluorescein-EX protein labeling kit
- internalization into nuclei ([3]; P5 DRG neurons, 1 μg/ml or 10 μg/ml, 5 minutes): internalized into nuclei within 5 minutes in a dose-dependent manner
- internalization / presence in nuclei of neurons ([3]; P5 DRG neurons, 10 μg/ml, 1 hour): clearly present in the nuclei of neurons
- internalization / presence in nuclei of DRG neurons [3]: present in the nuclei of DRG neurons
- nuclear localization at the restrictive temperature [4]: still occurred at the restrictive temperature
- present in the underlying CHO cell monolayer [5]: not
- observed in the brain and spinal cord ([6]; 4 and 8 hours): No fSLPI was observed in the brain and spinal cord at either time point
